The record followed here is IntAct's records for PubMed 19070620.

The experiment addresses T1, rogf8_arath ROPGEF8 (UniProt Q9LV40).
T1 sequence: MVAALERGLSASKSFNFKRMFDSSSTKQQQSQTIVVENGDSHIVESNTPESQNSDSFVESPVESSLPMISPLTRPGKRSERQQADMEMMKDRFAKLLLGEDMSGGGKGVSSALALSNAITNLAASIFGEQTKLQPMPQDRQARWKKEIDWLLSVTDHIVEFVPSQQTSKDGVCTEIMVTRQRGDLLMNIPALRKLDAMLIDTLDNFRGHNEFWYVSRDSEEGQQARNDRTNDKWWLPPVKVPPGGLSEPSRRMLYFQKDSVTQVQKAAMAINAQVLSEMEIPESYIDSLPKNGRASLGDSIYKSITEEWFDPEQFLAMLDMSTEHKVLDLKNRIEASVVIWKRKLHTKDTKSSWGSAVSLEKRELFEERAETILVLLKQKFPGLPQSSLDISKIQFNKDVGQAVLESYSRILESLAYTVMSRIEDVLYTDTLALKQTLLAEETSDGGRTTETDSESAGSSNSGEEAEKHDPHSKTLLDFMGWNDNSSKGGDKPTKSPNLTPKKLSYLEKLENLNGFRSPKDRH

“Ras-related C3 botulinum toxin substrate 1 (Homo sapiens) (from UniProt P63000) P73C”: the “effect of a mutation on the interaction” value is recorded as “increasing interaction”.
